The assay concerns the target PpsR2-mVenus-CAAX (membrane-bound) (Rhodopseudomonas palustris). Description: translocation assay.

“BphP1-mCherry, transiently expressed in HeLa cells (natural protein)” yielded a decrease of mCherry fluorescence in cytoplasm after 3 min of 740 nm illumination of 25%.

Values taken from paper PMC4927390.
